Experimental data: patent publication US20140341881A1

How the values were obtained:
[1] = target: human neutrophil elastase (HNE) (human) (UniProt P08246); experiment: cell-based or functional assay
[2] = target: human plasma kallikrein (PK) (human) (UniProt P03952); experiment: cell-based or functional assay
Sequence of human plasma kallikrein (PK) (human) (P03952 20-638 limits assumed): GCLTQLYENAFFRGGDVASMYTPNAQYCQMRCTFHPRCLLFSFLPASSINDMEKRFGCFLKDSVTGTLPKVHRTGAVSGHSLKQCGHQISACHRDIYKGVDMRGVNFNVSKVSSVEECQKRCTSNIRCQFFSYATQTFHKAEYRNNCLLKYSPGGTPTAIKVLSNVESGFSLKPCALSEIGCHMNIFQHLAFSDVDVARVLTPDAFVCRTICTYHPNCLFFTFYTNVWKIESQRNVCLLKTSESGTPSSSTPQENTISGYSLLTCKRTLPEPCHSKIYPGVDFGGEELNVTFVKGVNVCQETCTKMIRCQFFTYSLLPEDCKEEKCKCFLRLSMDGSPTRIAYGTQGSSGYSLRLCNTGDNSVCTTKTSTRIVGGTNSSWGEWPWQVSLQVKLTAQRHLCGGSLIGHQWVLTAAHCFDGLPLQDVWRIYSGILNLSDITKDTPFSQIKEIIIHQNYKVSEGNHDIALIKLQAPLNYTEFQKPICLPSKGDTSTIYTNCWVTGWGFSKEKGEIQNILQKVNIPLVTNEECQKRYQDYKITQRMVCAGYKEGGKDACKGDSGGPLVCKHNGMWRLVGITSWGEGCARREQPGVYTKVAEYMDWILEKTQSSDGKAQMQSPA

Sequence of human neutrophil elastase (HNE) (human) (P08246 30-247 limits assumed): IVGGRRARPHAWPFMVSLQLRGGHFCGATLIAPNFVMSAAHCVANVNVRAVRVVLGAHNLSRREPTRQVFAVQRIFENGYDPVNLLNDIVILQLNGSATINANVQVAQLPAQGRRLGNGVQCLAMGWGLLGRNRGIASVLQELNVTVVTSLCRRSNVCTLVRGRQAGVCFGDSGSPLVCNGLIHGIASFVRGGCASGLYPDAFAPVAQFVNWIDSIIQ

% Inhibition [1]: 26%
INHIBITION % [1]: 15%
Percentage inhibition [1]: 16%
% Inhibition [2]: 46%
INHIBITION % [2]: 0%
Percentage inhibition [2]: 46%
Substance: rACTWT (recombinant wild type alpha-1-antichymotrypsin) (from UniProt P01011 24-423)
